Laboratory results reported in patent US20200102389A1.

Legend:
[1] = biological target: recombinant soluble human HLA-G β2M MHC class I complex, monomer (human); experiment: SPR (Biacore), reference antibody against monomeric wt HLA-G complex
[2] = biological target: modified human HLA-G β2M MHC class I complex (HLA-G specific amino acids replaced by HLA-A consensus amino acids) (human); experiment: SPR (Biacore), reference antibody against degrafted HLA-G complex
[3] = biological target: human HLA-G expressed on cells (JEG3 naturally; SKOV3 HLA-G+ and PA-TU-8902 HLA-G+ transfectants) (human) (UniProt P17693); experiment: flow cytometry, JEG3 cells pre-incubated with antibody, competitor ILT2-Fc chimera

| Kd [1] [µM] | koff [1] [s⁻¹] | kon [1] [M⁻¹ s⁻¹] | t½ [1] [min] | Kd [2] [µM] | koff [2] [s⁻¹] | kon [2] [M⁻¹ s⁻¹] | t½ [2] [min] | Inhibition of ILT2 binding to Jeg3 cells [3] [%] | Substance |
| --- | --- | --- | --- | --- | --- | --- | --- | --- | --- |
| 0.012 | 0.00085 | 74000 | 14 | 0.013 | 0.0012 | 89000 | 10 |  | MEM-G/11 (antibody) |
| 0.0077 | 0.0011 | 150000 | 10 | 0.3 | 0.036 | 120000 | 0.3 | -27.9 | MEM/G9 (antibody) |
